Here are results for two molecules from publication PMC7782850, “Metaxins are core components of mitochondrial transport adaptor complexes” (Nature Communications, 2021).

Test [1] addresses T1, His-MIRO-1 (C. elegans, UniProt Q94263 1-602).
T1 construct: C. elegans MIRO-1, residues 1-602; source: E. coli BL21 (DE3) codon plus, purified (Ni2+-Sepharose, size-exclusion chromatography)
T1 sequence (looked up): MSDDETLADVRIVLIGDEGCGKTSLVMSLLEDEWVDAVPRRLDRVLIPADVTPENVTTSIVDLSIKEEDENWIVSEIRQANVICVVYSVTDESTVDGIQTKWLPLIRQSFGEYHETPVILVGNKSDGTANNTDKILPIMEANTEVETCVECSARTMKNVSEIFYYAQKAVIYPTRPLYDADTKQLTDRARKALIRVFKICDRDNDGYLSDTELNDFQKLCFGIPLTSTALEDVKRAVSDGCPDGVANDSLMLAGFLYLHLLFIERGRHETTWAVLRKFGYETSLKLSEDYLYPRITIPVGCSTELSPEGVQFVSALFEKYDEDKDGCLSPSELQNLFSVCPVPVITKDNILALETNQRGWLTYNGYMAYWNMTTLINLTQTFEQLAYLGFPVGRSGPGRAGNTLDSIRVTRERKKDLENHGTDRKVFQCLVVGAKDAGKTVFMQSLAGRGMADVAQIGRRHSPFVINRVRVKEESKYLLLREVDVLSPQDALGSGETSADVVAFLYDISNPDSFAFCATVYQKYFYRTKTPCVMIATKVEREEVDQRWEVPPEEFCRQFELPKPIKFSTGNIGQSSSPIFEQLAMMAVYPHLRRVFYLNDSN
Description: SEC; analytical gel filtration of purified proteins, Superdex-200 10/300, 25 mM HEPES pH 7.4, 100 mM NaCl, 1 mM DTT, 1 mM EDTA; fractions analysed by SDS-PAGE with Coomassie-blue staining. The note with it: both partners purified. On the technique in general: In gel filtration, larger molecules generally elute earlier.

Test [2] deals with T2, Trx-MTX-1 (C. elegans, UniProt O45503 1-281).
T2 construct: C. elegans MTX-1, residues 1-281
T2 sequence (looked up): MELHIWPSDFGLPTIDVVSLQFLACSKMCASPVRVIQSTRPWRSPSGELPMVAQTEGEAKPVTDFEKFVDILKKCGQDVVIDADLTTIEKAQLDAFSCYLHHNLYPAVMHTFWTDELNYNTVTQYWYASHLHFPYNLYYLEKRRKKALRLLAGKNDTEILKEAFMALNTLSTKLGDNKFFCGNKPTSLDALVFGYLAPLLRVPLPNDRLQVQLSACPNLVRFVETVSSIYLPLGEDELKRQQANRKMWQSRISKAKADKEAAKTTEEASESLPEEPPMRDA
Described as above. The note with it: both partners purified.

B1: MTX-1/2 complex (formed by co-expression of Trx-MTX-1 and Trx-MTX-2) (complex, C. elegans)
chain 1: MELHIWPSDFGLPTIDVVSLQFLACSKMCASPVRVIQSTRPWRSPSGELPMVAQTEGEAKPVTDFEKFVDILKKCGQDVVIDADLTTIEKAQLDAFSCYLHHNLYPAVMHTFWTDELNYNTVTQYWYASHLHFPYNLYYLEKRRKKALRLLAGKNDTEILKEAFMALNTLSTKLGDNKFFCGNKPTSLDALVFGYLAPLLRVPLPNDRLQVQLSACPNLVRFVETVSSIYLPLGEDELKRQQANRKMWQSRISKAKADKEAAKTTEEASESLPEEPPMRDA
chain 2: MSSSGVITQLVTDALSMNAAQDWEDVSLFTPYLNDQALMYDFADCLAVQTFLRMTSLPFNVRQRPNVDFISPDGVVPLLKINKTLITGFNAIVDFVHKKGVTLTSHLSETQVADMRANISMIEHLLTTVEKFVLWNHDETYDKVTKLRYGSVYHWPLSSVLPFVKRRKILEELSDKDWDTKTMDEVGEQADKVFRALSAQLGSQKYLTGDLPTEADALLFGHMYTLITVR
notes: C. elegans MTX-1, residues 1-281; C. elegans MTX-2, full length; Complex formed beforehand by co-expression of the two chains; also called MTX-1/MTX-2 complex; metaxin complex; source: E. coli BL21 (DE3) codon plus, co-expressed (pRSFDuet-1); in cell lysate (pull-down); purified (Ni2+-Sepharose, size-exclusion chromatography) for gel filtration
Consider B1, for which the binding result in test [1] is recorded as “binds”.

B2: Trx-MTX-2 (natural protein, C. elegans, UniProt P34599 1-230, looked up)
chain: MSSSGVITQLVTDALSMNAAQDWEDVSLFTPYLNDQALMYDFADCLAVQTFLRMTSLPFNVRQRPNVDFISPDGVVPLLKINKTLITGFNAIVDFVHKKGVTLTSHLSETQVADMRANISMIEHLLTTVEKFVLWNHDETYDKVTKLRYGSVYHWPLSSVLPFVKRRKILEELSDKDWDTKTMDEVGEQADKVFRALSAQLGSQKYLTGDLPTEADALLFGHMYTLITVR
notes: C. elegans MTX-2, full length; source: E. coli BL21 (DE3) codon plus; in cell lysate (pull-down); purified (Ni2+-Sepharose, size-exclusion chromatography) for gel filtration
As to B2, the binding result in test [1] and in test [2] was “binds” in each case.
